We go through 16 molecules from patent US20200155661A1 (LENTIGEN TECHNOLOGY, published 2020).

Residue numbers refer to the chain shown, from its start.

First the molecules themselves.
B1: CD22-specific binder (scFv18) 16P15 (scFv)
scFv: QVQLQQSGPGLVKPSQTLSLTCAISGDSVSSNSAAWNWIRQSPSRGLEWLGRTYYRSKWYNDYAVSVKSRITINPDTSKNQFSLQLNSVTPEDTAVYYCAQEVEPHDALDIWGQGTMVTVSSGGGGSGGGGSGGGGSDIQMTQSPSSVSASVGDKVTITCRASQDVSGWLAWYQQKPGLAPQLLIFGASTLQGEVPSRFSGSGSGTDFTLTISSLQPEDFATYYCQQAKYFPYTFGQGTKLEIK
B2: CD22-specific binder (scFv8) 16P20 (scFv)
scFv: B1 scFv
B3: CD22-specific binder (scFv6) 16P3 (scFv)
scFv: B1 scFv with V2I, E104Q, H106D, F186S, Y230N
B4: CD22-specific binder (scFv7) 16P16 (scFv)
scFv: B1 scFv with S78F, Q140K
B5: CD22-specific binder (scFv10) 16P6 (scFv)
scFv: B1 scFv with E104Q, H106D, L109F, V118I, F186S, E194G, Y230N
B6: CD22-specific binder (scFv17) 16P13 (scFv)
scFv: B1 scFv with D27N, H106Q, L109F, S202G
B7: CD22-specific binder (scFv12) 16P17 (scFv)
scFv: B1 scFv with P14H, L109F, S149Y, F186S
B8: CD22-specific binder (scFv11) 16P10 (scFv)
scFv: B1 scFv with H106Q, L109F, Q237P
B9: CD22-specific binder (scFv14) 16P1 (scFv)
scFv: B1 scFv with A23D, V103I, L109F, G113D, D138V, F186S, T190S, E194G
B10: CD22-specific binder (scFv16) 16P8 (scFv)
scFv: B1 scFv with N61T, S69N, H106Q, L109F, Q237R
B11: CD22-specific binder (scFv9) 16P2 (scFv)
scFv: B1 scFv with S78F, Q140K
B12: CD22-specific binder (scFv13) 16P20v2 (scFv)
scFv: B1 scFv with E104Q, H106D, L109F, F186S, Y230N
B13: CD22-specific binder (scFv15) 16P3v2 (scFv)
scFv: B1 scFv with P14H, T21A, E104Q, H106Q, S147F, T157I, F186S
B14: CD22-specific binder (scFv1) 16P (scFv)
scFv: QVQLQQSGPGLVKPSQTLSLTCAISGDSVSSNSAAWNWIRQSPSRGLEWLGRTYYRSKWYNDYAVSVKSRITINPDTSKNQFSLQLNSVTPEDTAVYYCAQEVQPHDAFDIWGQGTMVTVSSGGGGSGGGGSGGGGSDIQMTQSPSSVSASVGDKVTITCRASQDVSGWLAWYQQKPGLAPQLLIFGASTLQGEVPSRFSGSGSGTDFTLTISSLQPEDFATYYCQQAKNFPYTFGQGTKLEIKR
notes: also called founder clone
B15: CD22-specific binder (scFv3) 25P (scFv)
scFv: QVQLQQSGPGLVKPSQTLSLTCAISGDSVSSNSAAWNWIRQSPSRGLEWLGRTYYRSKWYNDYAVSVKSRITINPDTSKNQFSLQLNSLTPEDTAVYYCAREHQNEAAFDIWGQGTMVTVSSGGGGSGGGGSGGGGSQSVLTQPPSASGTPGQRVTISCSGGGSNIGTNTASWYQQLPGTAPKLLIYRNTQRPSGIPDRFSGSKSGTSASLAISGLQSEDEADYYCAAWDDSLNGYVFGAGTQLTVLG
notes: Lambda light chain
B16: CD22-specific binder (scFv5) 12s (scFv)
scFv: QVQLQQSGPGLVKPSQTLSLTCAISGDSVSSNSAAWNWIRQSPSRGLEWLGRTYYRSKWYNDYAVSVKSRITINPDTSKNQFSLQLNSVTPEDTAVYYCAREGDDALDIWGQGTMVTVSSGGGGSGGGGSGGGGSDIQMTQSPSSLSASVGDRVTITCRASQSISHFLNWYQQKPGTAPKLLITTASGLGSGVPSRFSGSGSGTDFTLTINSLQPEDLATYYCQQSYTTPLTFGGGTKLEIKR

The first experiment has as its target T1, recombinant human CD22 (labeled CD22 used in flow cytometry of yeast) (human, UniProt P20273 20-687, limits assumed, fluorescent label, not specified).
T1 construct: also called fluorescently tagged antigen
Description: flow cytometry of yeast-displayed scFv with decreasing amounts of labeled CD22. How it is done:
After electroporation, the resulting mutant library was then grown overnight at 30° C. for 16 hours in SDCAA medium and then switched into SGCAA medium at 30° C. for another 16 hours. The mutant library was then sorted through MACS (immunomagentic column, Miltenyi Biotec) with CD22-Fc as the capture antigen to downsize the library and to increase the population of mutants that could bind to CD22-Fc. The strongest binders were then selected by double staining the pools with Anti-c-Myc-Alexa 488 and […]/Anti-Hu-Fc and selecting for the binders that had the highest binding affinities as well as c-Myc expression levels. […] Binding affinities were estimated by flow cytometry of yeast pools using decreasing amounts of labeled CD22.
(In general: Flow cytometry measures light scatter and fluorescence of single cells or particles in a stream.)
As for B1, the EC50 was under 0.01 µg/mL.

Take B2: the EC50 is under 0.01 µg/mL.

With B3, the EC50 was under 0.01 µg/mL.

In the case of B4, the EC50 was under 0.01 µg/mL.

Turning to B5, the EC50 is under 0.01 µg/mL.

As for B6, the EC50 is under 0.01 µg/mL.

Consider B7, for which the EC50 was under 0.01 µg/mL.

B8: the EC50 is under 0.01 µg/mL.

Take B9: the half-maximal effective concentration (EC50) is under 0.01 µg/mL.

As to B10, the EC50 was under 0.01 µg/mL.

For the molecule B11, the EC50 was under 0.01 µg/mL.

As for B12, the EC50 is under 0.01 µg/mL.

In the case of B13, the EC50 is under 0.01 µg/mL.

As to B14, the EC50 was 0.5 µg/mL.

Another experiment concerns the target T2, CD22 expressed on cells (CHOK1-CD22, K562-CD22, Raji, Reh) (human, UniProt P20273 20-847).
T2 construct: whole, on cells; also called SIGLEC-2; Leu14
Put plainly: yeast display cell panning on CHOK1 cells transfected with CD22. The procedure: The same ScFv starting material as for phage display was also incorporated into a yeast ScFv display system. To supplement phage-based scFv analysis, yeast libraries expressing the human scFv library were also screened. To enrich the yeast expressing scFvs that bind to both the recombinant CD22-Fc and the […] expressed on the cell surface of the CHOK1 cells, cell panning on CHOK1 transfected with CD22 cells was performed. For the first round of panning on the cell surface, two days prior to panning, the CHOK1-CD22 cells were seeded into 6-well plates and grown to 50% confluency in F12 K medium. 5×10⁷ yeast cells were then washed 2× with PBSA buffer and resuspended into 3 mL F12 K medium, and then gently added dropwise to the CHOK1-CD22 cells. […] The cell mix containing both the yeast and CHOK1 cells were then inoculated into 10 mL SDCAA medium and amplified overnight at 30° C. and then induced in SGCAA medium at 30° C. for 16 hours. For the second round of cell panning, a similar protocol as above was performed, but more stringent wash conditions were used. […] Binder sequences were incorporated into CART constructs as described in Example 2, infra, in a series of in vitro CART functional assays.
For B15, the binding result is “binds”.

Turning to B16, the binding result was “binds”.

For orientation: EC50 means the midpoint of the concentration-response curve.
